34 variants from the Human Domainome abundance scans (Beltran et al. 2025) can be followed below.

First the molecules themselves.
B1: GA-binding protein alpha chain, residues 172 to 250; numbered along this chain, Q06546 (parent)
chain: GYRKEQERLGIPYDPIQWSTDQVLHWVVWVMKEFSMTDIDLTTLNISGRELCSLNQEDFFQRVPRGEILWSHLELLRKY

± gives the uncertainty stated by the source.

Variants of B1 are the subject of this data set. Put plainly: abundance fitness (aPCA) (normalised: wild type 0, dead -1); higher = more abundant; growth selection in yeast, the domain comes from the species named. As to conditions: Homo sapiens.
As to GYRKEQERLGIPYDPIQWSTDQVLHWVVWVMKEFSMTEIDLTTLNISGRELCSLNQEDFFQRVPRGEILWSHLELLRKY, the abundance fitness stood at 0.03 ± 0.066. With GYRKEQERLGIPYDPIQWSTDQVLHWVVWVMKEFSMTAIDLTTLNISGRELCSLNQEDFFQRVPRGEILWSHLELLRKY the figure was -0.154 ± 0.041; with GYRKEQERLGIPYDPIQWSTDQVLHWVVWVMKEFSMTFIDLTTLNISGRELCSLNQEDFFQRVPRGEILWSHLELLRKY, -0.492 ± 0.085. The figure for GYRKEQERLGIPYDPIQWSTDQVLHWVVWVMKEFSRTDIDLTTLNISGRELCSLNQEDFFQRVPRGEILWSHLELLRKY is -0.029 ± 0.028; for GYRKEQERLGIPYDPIQWSTDQVLHWVVWVMKEFSCTDIDLTTLNISGRELCSLNQEDFFQRVPRGEILWSHLELLRKY it is 0.081 ± 0.048. The figure for GYRKEQERLGIPYDPIQWSTDQVLHWVVWVMKEFSFTDIDLTTLNISGRELCSLNQEDFFQRVPRGEILWSHLELLRKY is -0.09 ± 0.058. GYRKEQERLGIPYDPIQWSTDQVLHWVVWVMKEFSQTDIDLTTLNISGRELCSLNQEDFFQRVPRGEILWSHLELLRKY: the abundance fitness is -0.08 ± 0.054. The figure for GYRKEQERLGIPYDPIQWSTDQVLHWVVWVMKEFSLTDIDLTTLNISGRELCSLNQEDFFQRVPRGEILWSHLELLRKY is 0.043 ± 0.038; for GYRKEQERLGIPYDPIQWSTDQVLHWVVWVMKEFSYTDIDLTTLNISGRELCSLNQEDFFQRVPRGEILWSHLELLRKY it is -0.053 ± 0.1; for GYRKEQERLGIPYDPIQWSTDQVLHWVVWVMKEFSPTDIDLTTLNISGRELCSLNQEDFFQRVPRGEILWSHLELLRKY it is -0.196 ± 0.055. With GYRKEQERLGIPYDPIQWSTDQVLHWVVWVMKEFSHTDIDLTTLNISGRELCSLNQEDFFQRVPRGEILWSHLELLRKY the figure was -0.193 ± 0.075; with GYRKEQERLGIPYDPIQWSTDQVLHWVVWVMKEFSETDIDLTTLNISGRELCSLNQEDFFQRVPRGEILWSHLELLRKY, -0.031 ± 0.054; with GYRKEQERLGIPYDPIQWSTDQVLHWVVWVMKEFSWTDIDLTTLNISGRELCSLNQEDFFQRVPRGEILWSHLELLRKY, -0.118 ± 0.04.

For the variant GYRKEQERLGIPYDPIQWSTDQVLHWVVWVMKEFSATDIDLTTLNISGRELCSLNQEDFFQRVPRGEILWSHLELLRKY, the abundance fitness was -0.025 ± 0.039. With GYRKEQERLGIPYDPIQWSTDQVLHWVVWVMKEFSGTDIDLTTLNISGRELCSLNQEDFFQRVPRGEILWSHLELLRKY, the abundance fitness was -0.182 ± 0.032.

Take GYRKEQERLGIPYDPIQWSTDQVLHWVVWVMKEFSDTDIDLTTLNISGRELCSLNQEDFFQRVPRGEILWSHLELLRKY: the abundance fitness was -0.019 ± 0.05. With GYRKEQERLGIPYDPIQWSTDQVLHWVVWVMKEFSKTDIDLTTLNISGRELCSLNQEDFFQRVPRGEILWSHLELLRKY the figure was -0.062 ± 0.043; with GYRKEQERLGIPYDPIQWSTDQVLHWVVWVMKEFSITDIDLTTLNISGRELCSLNQEDFFQRVPRGEILWSHLELLRKY, -0.05 ± 0.068; with GYRKEQERLGIPYDPIQWSTDQVLHWVVWVMKEFSSTDIDLTTLNISGRELCSLNQEDFFQRVPRGEILWSHLELLRKY, -0.102 ± 0.045. The figure for GYRKEQERLGIPYDPIQWSTDQVLHWVVWVMKEFSNTDIDLTTLNISGRELCSLNQEDFFQRVPRGEILWSHLELLRKY is -0.189 ± 0.12. In the case of GYRKEQERLGIPYDPIQWSTDQVLHWVVWVMKEFSVTDIDLTTLNISGRELCSLNQEDFFQRVPRGEILWSHLELLRKY, the abundance fitness is -0.013 ± 0.034. With GYRKEQERLGIPYDPIQWSTDQVLHWVVWVMKEFSMRDIDLTTLNISGRELCSLNQEDFFQRVPRGEILWSHLELLRKY the figure was -0.033 ± 0.034. With GYRKEQERLGIPYDPIQWSTDQVLHWVVWVMKEFSMQDIDLTTLNISGRELCSLNQEDFFQRVPRGEILWSHLELLRKY the figure was -0.009 ± 0.05; with GYRKEQERLGIPYDPIQWSTDQVLHWVVWVMKEFSMIDIDLTTLNISGRELCSLNQEDFFQRVPRGEILWSHLELLRKY, -0.256 ± 0.071; with GYRKEQERLGIPYDPIQWSTDQVLHWVVWVMKEFSMGDIDLTTLNISGRELCSLNQEDFFQRVPRGEILWSHLELLRKY, -0.004 ± 0.038. With GYRKEQERLGIPYDPIQWSTDQVLHWVVWVMKEFSMFDIDLTTLNISGRELCSLNQEDFFQRVPRGEILWSHLELLRKY the figure was -0.019 ± 0.05; with GYRKEQERLGIPYDPIQWSTDQVLHWVVWVMKEFSMPDIDLTTLNISGRELCSLNQEDFFQRVPRGEILWSHLELLRKY, 0.014 ± 0.035; with GYRKEQERLGIPYDPIQWSTDQVLHWVVWVMKEFSMHDIDLTTLNISGRELCSLNQEDFFQRVPRGEILWSHLELLRKY, -0.037 ± 0.088. Consider GYRKEQERLGIPYDPIQWSTDQVLHWVVWVMKEFSMMDIDLTTLNISGRELCSLNQEDFFQRVPRGEILWSHLELLRKY, for which the abundance fitness is -0.028 ± 0.053.

Consider GYRKEQERLGIPYDPIQWSTDQVLHWVVWVMKEFSMSDIDLTTLNISGRELCSLNQEDFFQRVPRGEILWSHLELLRKY, for which the abundance fitness was -0.07 ± 0.037. As for GYRKEQERLGIPYDPIQWSTDQVLHWVVWVMKEFSMEDIDLTTLNISGRELCSLNQEDFFQRVPRGEILWSHLELLRKY, the abundance fitness amounted to 0.017 ± 0.057. The figure for GYRKEQERLGIPYDPIQWSTDQVLHWVVWVMKEFSMVDIDLTTLNISGRELCSLNQEDFFQRVPRGEILWSHLELLRKY is -0.1 ± 0.041; for GYRKEQERLGIPYDPIQWSTDQVLHWVVWVMKEFSMDDIDLTTLNISGRELCSLNQEDFFQRVPRGEILWSHLELLRKY it is -0.22 ± 0.32. The figure for GYRKEQERLGIPYDPIQWSTDQVLHWVVWVMKEFSMNDIDLTTLNISGRELCSLNQEDFFQRVPRGEILWSHLELLRKY is -0.027 ± 0.074.
